Measurements published in US20040077031.

Key:
[1] = target: T1, MGKVKVG (GADPH) peptide
T1 chain: MGKVKVG

[2] = target: T2, MGKVKVGVN peptide
T2 chain: MGKVKVGVN

[3] = target: T3, MGAQFSKT (MARCKS protein) octameric peptide
T3 chain: MGAQFSKT

[4] = target: T4, MGNAAAAK (PKC a) octameric peptide
T4 chain: MGNAAAAK

[5] = target: T5, MGKVKV peptide
T5 chain: MGKVKV

[6] = target: T6, MGKV peptide
T6 chain: MGKV

[7] = target: T7, MGKVK peptide
T7 chain: MGKVK

[8] = target: T8, MGKVKVGVNG peptide
T8 chain: MGKVKVGVNG

[9] = target: T9, MGKVKVGVNGF peptide
T9 chain: MGKVKVGVNGF

[10] = target: T10, MAS (methionine-alanine-serine) trimeric peptide
T10 chain: MAS

[11] = target: T11, MGK peptide
T11 chain: MGK

[12] = target: T12, MGSSKSKP (Src p60) octameric peptide
T12 chain: MGSSKSKP

[13] = target: T13, MGNLKSVA (eNOS) octameric peptide
T13 chain: MGNLKSVA

B1: recombinant human methionine aminopeptidase type 2 (MetAP2) with N-terminal histidine tag (protein)
chain: MAGVEEVAASGSHLNGDLDPDDREEGAASTAEEAAKKKRRKKKKSKGPSAAGEQEPDKESGASVDEVARQLERSALEDKERDEDDEDGDGDGDGATGKKKKKKKKKRGPKVQTDPPSVPICDLYPNGVFPKGQECEYPPTQDGRTAAWRTTSEEKKALDQASEEIWNDFREAAEAHRQVRKYVMSWIKPGMTMIEICEKLEDCSRKLIKENGLNAGLAFPTGCSLNNCAAHYTPNAGDTTVLQYDDICKIDFGTHISGRIIDCAFTVTFNPKYDTLLKAVKDATNTGIKCAGIDVRLCDVGEAIQEVMESYEVEIDGKTYQVKPIRNLNGHSIGQYRIHAGKTVPIVKGGEATRMEEGEVYAIETFGSTGKGVVHDDMECSHYMKNFDVGHVPIRLPRTKHLLNVINENFGTLAFCRRWLDRLGESKYLMALKNLCDLGIVDPYPPLCDIKGSYTAQFEHTILLRPTCKEVVSRGDDY
Question: What does the source list for B1?
Answer: Km [1]: 215 µM; kcat [1]: 9.56 s⁻¹; kcat/Km [1]: 2.7; Km [2]: 205 µM; kcat [2]: 10.2 s⁻¹; kcat/Km [2]: 3; Km [3]: 224 µM; baseline activity (turnover, no added metal) [3]: 0.12 µM/min turnover of MGAQFSKT at 30 nM MetAP2; kcat [3]: 4.87 s⁻¹; kcat/Km [3]: 1.3; Km [4]: 260 µM; kcat [4]: 3.78 s⁻¹; kcat/Km [4]: 0.9; Km [5]: 149 µM; kcat [5]: 8.53 s⁻¹; kcat/Km [5]: 3.4; Km [6]: 624 µM; kcat [6]: 6.7 s⁻¹; kcat/Km [6]: 0.6; Km [7]: 188 µM; kcat [7]: 10.4 s⁻¹; kcat/Km [7]: 3.3; Km [8]: 164 µM; kcat [8]: 10.2 s⁻¹; kcat/Km [8]: 3.7; Km [9]: 131 µM; kcat [9]: 9.43 s⁻¹; kcat/Km [9]: 4.3; Km [10]: 212 µM; baseline activity (turnover, no added metal) [10]: 0.19 µM/min turnover of MAS at 60 nM MetAP2; enzymatic cleavage of peptide substrate [10]: showed enzymatic activity in cleaving a tripeptide MAS substrate; kcat [10]: 2.54 s⁻¹; kcat/Km [10]: 0.72; Km [11]: 758 µM; kcat [11]: 3.32 s⁻¹; kcat/Km [11]: 0.3; Km [12]: 233 µM; kcat [12]: 3.94 s⁻¹; kcat/Km [12]: 1; Km [13]: 208 µM; kcat [13]: 4.87 s⁻¹; kcat/Km [13]: 1.4
